We go through 1 substance from paper PMC3868510.

A word on the Kd: it is the equilibrium constant for the complex coming apart. Broadly, the koff is a measure of how fast the partners let go of each other. As a reminder, the kon is the rate constant with which the complex forms. Lower therefore signals slower complex formation.

In experiment [1] the target is soluble truncated αvβ6 integrin conjugated to alkaline phosphatase (UniProt P06756). The experiment in a line: SPR; Biacore 2000, CM-5 chip; MAb LS-C44264 to placental alkaline phosphatase immobilised by amine coupling and used to capture the soluble integrin-AP; gH/gL injected at 50 µl/min; 25°C; 10 mM HEPES-NaOH pH 7.4, 150 mM NaCl, 0.005% P20; kobs against gH/gL concentration, 1:1 Langmuir. For orientation: In SPR one partner is held on a chip, and binding of the other changes the refractive index at the surface.
Chain of soluble truncated αvβ6 integrin conjugated to alkaline phosphatase (P06756 31-1048, chain 1 of 2): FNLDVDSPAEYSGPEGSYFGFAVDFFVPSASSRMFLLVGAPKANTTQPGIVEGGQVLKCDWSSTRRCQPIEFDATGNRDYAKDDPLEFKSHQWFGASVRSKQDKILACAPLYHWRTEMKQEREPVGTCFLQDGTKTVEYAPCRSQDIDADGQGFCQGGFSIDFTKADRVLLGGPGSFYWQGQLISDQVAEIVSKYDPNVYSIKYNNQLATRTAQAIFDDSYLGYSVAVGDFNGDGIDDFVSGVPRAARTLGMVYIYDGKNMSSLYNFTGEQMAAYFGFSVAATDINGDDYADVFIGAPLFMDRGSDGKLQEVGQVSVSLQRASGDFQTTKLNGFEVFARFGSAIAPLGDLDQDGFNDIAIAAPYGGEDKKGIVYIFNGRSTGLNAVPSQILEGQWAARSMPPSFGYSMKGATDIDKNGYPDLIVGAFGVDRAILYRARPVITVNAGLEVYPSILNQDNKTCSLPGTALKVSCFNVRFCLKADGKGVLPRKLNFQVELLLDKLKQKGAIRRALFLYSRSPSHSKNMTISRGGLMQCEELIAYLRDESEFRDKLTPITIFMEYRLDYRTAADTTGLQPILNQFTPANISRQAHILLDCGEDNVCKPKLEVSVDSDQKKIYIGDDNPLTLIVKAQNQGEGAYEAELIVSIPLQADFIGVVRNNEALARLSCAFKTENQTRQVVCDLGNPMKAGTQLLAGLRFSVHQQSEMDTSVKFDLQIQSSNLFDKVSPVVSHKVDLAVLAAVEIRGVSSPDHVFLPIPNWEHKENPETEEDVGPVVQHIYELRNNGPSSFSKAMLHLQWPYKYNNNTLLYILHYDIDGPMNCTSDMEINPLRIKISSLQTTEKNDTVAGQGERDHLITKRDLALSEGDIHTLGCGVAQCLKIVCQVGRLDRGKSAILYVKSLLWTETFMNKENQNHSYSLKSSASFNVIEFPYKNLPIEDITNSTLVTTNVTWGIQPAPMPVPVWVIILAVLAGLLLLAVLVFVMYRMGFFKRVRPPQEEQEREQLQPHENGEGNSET
Chain of soluble truncated αvβ6 integrin conjugated to alkaline phosphatase (P18564 22-709, chain 2 of 2, further chain): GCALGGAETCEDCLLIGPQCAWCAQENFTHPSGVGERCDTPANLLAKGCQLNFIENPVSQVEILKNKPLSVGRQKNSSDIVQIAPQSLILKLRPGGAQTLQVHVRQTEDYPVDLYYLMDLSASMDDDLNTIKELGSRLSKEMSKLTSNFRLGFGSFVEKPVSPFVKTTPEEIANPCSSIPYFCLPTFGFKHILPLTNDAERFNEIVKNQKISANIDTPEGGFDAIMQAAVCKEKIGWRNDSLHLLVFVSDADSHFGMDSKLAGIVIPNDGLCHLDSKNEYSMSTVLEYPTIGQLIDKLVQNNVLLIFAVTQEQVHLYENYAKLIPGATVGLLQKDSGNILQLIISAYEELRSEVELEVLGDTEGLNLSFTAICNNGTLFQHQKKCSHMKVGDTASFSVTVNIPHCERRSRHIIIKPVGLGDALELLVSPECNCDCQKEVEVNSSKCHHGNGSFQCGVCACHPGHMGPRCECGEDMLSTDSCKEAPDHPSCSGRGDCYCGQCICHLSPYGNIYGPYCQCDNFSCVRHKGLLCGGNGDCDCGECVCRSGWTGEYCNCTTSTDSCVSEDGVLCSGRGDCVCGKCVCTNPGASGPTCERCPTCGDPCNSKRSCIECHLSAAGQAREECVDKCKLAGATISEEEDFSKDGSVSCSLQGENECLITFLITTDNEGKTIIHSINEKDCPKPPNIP

Experiment [2] has as its target soluble truncated αvβ8 integrin conjugated to alkaline phosphatase (UniProt P06756). The experiment is described as above.

Chain of soluble truncated αvβ8 integrin conjugated to alkaline phosphatase (P06756 31-1048, chain 1 of 2): as the sequence (P06756 31-1048, chain 1 of 2) above
Chain of soluble truncated αvβ8 integrin conjugated to alkaline phosphatase (P26012 43-684, chain 2 of 2, further chain): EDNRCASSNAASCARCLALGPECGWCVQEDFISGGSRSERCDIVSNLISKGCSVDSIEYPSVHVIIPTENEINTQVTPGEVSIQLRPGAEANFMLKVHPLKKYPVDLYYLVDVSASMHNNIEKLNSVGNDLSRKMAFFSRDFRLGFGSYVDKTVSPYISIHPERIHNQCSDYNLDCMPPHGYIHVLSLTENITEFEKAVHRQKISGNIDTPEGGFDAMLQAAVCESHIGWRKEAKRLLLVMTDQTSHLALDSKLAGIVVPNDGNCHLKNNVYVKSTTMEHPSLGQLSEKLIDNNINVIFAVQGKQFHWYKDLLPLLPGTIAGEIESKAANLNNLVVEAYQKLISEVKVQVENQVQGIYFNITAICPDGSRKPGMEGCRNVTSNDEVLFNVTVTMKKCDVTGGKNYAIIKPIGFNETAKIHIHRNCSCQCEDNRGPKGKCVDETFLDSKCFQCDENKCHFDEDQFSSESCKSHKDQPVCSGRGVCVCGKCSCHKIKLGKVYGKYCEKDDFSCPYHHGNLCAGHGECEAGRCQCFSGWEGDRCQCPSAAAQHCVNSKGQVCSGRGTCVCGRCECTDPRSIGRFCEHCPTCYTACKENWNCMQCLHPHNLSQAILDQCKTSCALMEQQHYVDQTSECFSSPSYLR

For “soluble form of HSV gH/gL (gHt/gL) (from UniProt P06477 19-838; P10185 20-224) (complex)”, in experiment [1], the Kd was determined as 12 nM, the koff was found to be 0.0018 s⁻¹ and the kon amounted to 152000 M⁻¹ s⁻¹. In experiment [2], the Kd was 27 nM, the off-rate constant (koff) is 0.005 s⁻¹ and the on-rate constant (kon) is 207000 M⁻¹ s⁻¹.
